In patent US20230110188A1 (ARGENX IIP, published 2023):
Substitutions are numbered along the chain they refer to.

T1: Human MuSK (R&D Systems, cat. 10189-MK, histidine tag) (human, UniProt O15146 24-495)
T1 construct: Bought protein; also called human monomeric MuSK-6xhis; not shown: histidine tag (6xhis)
T1 sequence: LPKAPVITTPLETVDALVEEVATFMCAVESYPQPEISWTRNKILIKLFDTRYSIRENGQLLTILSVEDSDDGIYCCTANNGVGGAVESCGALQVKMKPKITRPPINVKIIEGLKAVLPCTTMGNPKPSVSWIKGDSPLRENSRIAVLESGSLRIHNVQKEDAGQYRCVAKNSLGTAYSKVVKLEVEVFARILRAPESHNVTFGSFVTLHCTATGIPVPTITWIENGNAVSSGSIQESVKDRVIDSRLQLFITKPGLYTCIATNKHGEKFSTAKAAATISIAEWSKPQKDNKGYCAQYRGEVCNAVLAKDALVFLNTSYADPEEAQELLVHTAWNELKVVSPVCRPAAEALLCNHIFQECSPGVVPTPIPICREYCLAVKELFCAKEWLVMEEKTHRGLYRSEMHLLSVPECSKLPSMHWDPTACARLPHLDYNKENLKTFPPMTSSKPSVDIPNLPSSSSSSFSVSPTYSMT

T2: human monomeric MuSK FLAG streptavidin (in house produced, batch 27-6-2019) (human, UniProt O15146 24-495)
T2 construct: also called full length MuSK; not shown: FLAG and streptavidin tags
T2 sequence: T1 sequence

B1: 3D10a (antibody, human IgG1, kappa, L234A L235A, V domains shown)
VH: EVQLVESGGGLVKPGGSLRLSCAASGFTFSASTMAWVRQAPGKGLEWVSSVSGDSHHIYYADSLKGRFTISRDNAKNSLYLQMNSLRAEDTAVYYCARERLLRLGVGFDSWGQGTLVTVSS
VL: DIQMTQSPSSLSASVGDRVTITCRASQRISGFVNWYQQKPGKAPKLLIYAASTLQSGVPSRFSGSGSGTDFTLTISSLQPEDFATYYCQQSYSPLYTFGQGTKLEIKR
B2: 3D9b (antibody, human IgG1, kappa, L234A L235A, V domains shown)
VH: EVQLVESGGGLVKPGGSLRLSCAASGFTFSTYTMHWVRQAPGKGLEWVSSISSRSAYKYYADSVKGRFTISRDNAKNSLYLQMNSLRAEDTAVYYCARDFFQLGPPRFDSWGQGTLVTVSS
VL: B1 VL with G31S, V33L, A50G, T53N, L95S
B3: 3F6c (antibody, human IgG1, kappa, L234A L235A, V domains shown)
VH: EVQLVESGGGLVKPGGSLRLSCAASGFTFSSYTMDWVRQAPGKGLEWVSSIGSNGDYIYYADSVRGRFTISRDNAKNSLYLQMNSLRAEDTAVYYCARGQLAVAGTHFDYWGQGTLVTVSS
VL: B1 VL with R28K, I29V, S30N, G31K, F32Y, Y96S
B4: 4D3 (antibody, human IgG1, kappa, L234A L235A, V domains shown)
VH: B1 VH with A31S, S32Y, A35T, V51I, G53S, D54G, S55G, H57Y, A61T, S110F
VL: B1 VL with R28S, F32Y, V33L, P94A

Experiments:
[1] = molecular target: T1, Human MuSK (R&D Systems, cat. 10189-MK, …); assay: SPR (Biacore), MuSK-coated chip presaturated with 500 nM 4D3 (competitor)
Method: (§1) A chip was coated with ˜5000 RU of human MuSK (Lot nr DHUCO 11908A, batch nr 1089_MK). In a first experiment the saturating concentration of the pre-leads was determined. This is the concentration where the amplitude of a specific pre-lead doesn't increase anymore when additional pre-lead is injected on the immobilized MuSK.

[2] = molecular target: T1, Human MuSK (R&D Systems, cat. 10189-MK, …); assay: SPR (Biacore), MuSK-coated chip presaturated with 500 nM 3D9b (competitor)
Method: as §1

[3] = molecular target: T1, Human MuSK (R&D Systems, cat. 10189-MK, …); assay: SPR (Biacore), MuSK-coated chip presaturated with 500 nM 3D10a (competitor)
Method: as §1

[4] = molecular target: T1, Human MuSK (R&D Systems, cat. 10189-MK, …); assay: SPR (Biacore), MuSK-coated chip, antibody alone (run of first antibody 4D3)
Method: as §1

[5] = molecular target: T1, Human MuSK (R&D Systems, cat. 10189-MK, …); assay: SPR (Biacore), MuSK-coated chip, antibody alone (run of first antibody 3F6c)
Method: as §1

[6] = molecular target: T1, Human MuSK (R&D Systems, cat. 10189-MK, …); assay: SPR (Biacore), MuSK-coated chip, antibody alone (run of first antibody 3D9b)
Method: as §1

[7] = molecular target: T1, Human MuSK (R&D Systems, cat. 10189-MK, …); assay: SPR (Biacore), antibody captured on anti-hFc chip; 10 nM; dissociation pH 5.5
Description: (§2) In order to study pH dependent binding of our antibodies to MuSK, the Biacore was used with the same setup as described in the paragraph entitled “Binding affinity for mouse, human and rhesus monkey recombinant MuSK in Biacore”. 6. […] For the other antibodies there is no real difference observed between pH 7.4 and 5.5.

[8] = molecular target: T1, Human MuSK (R&D Systems, cat. 10189-MK, …); assay: SPR (Biacore), MuSK-coated chip, antibody alone (run of first antibody 3D10a)
Method: as §1

[9] = molecular target: T1, Human MuSK (R&D Systems, cat. 10189-MK, …); assay: SPR (Biacore), antibody captured on anti-hFc chip; 2.5 nM; dissociation pH 7.4
Description: as §2

[10] = molecular target: T1, Human MuSK (R&D Systems, cat. 10189-MK, …); assay: SPR (Biacore), antibody captured on anti-hFc chip; 2.5 nM; dissociation pH 5.5
Description: as §2

[11] = molecular target: T2, human monomeric MuSK FLAG streptavidin …; assay: epitope binning ELISA (coated anti-MuSK Fab, MuSK, IgG, anti-Fc HRP); competitor: 4D3
Method: (§3) For epitope binning—An ELISA plate was coated at 1 μg/ml of the anti-MuSK Fabs and incubated overnight at 4° C. Next, the plate was wash with PBS followed by blocking with 1% casein in PBS for one hour. After washing the plate, 1 μg/ml of human monomeric MuSK (in house produced, batch 27-6-2019) was incubated for one hour at RT. The plate was washed and anti-MuSK antibodies at 0.3-10 μg/ml were added to the plate and incubated for one hour at RT. After washing the plate, detection antibody (goat anti-human Fc HRP (Jackson Immunoresearch cat. 109-035-098)) was added at 5000 fold dilution in PBS 0.1% casein. The plate was incubated for one hour at RT and washed with PBS-T. TMB was added and the reaction was stopped by adding H2504. […]
(§4) For the epitope binning ELISA, a plate was coated with anti-MuSK Fab and human monomeric MuSK was added after blocking the plate. Next the different antibodies were added and allowed to bind.

[12] = molecular target: T1, Human MuSK (R&D Systems, cat. 10189-MK, …); assay: SPR (Biacore), antibody captured on anti-hFc chip; average of 0.3125-10 nM; dissociation pH 7.4
Description: as §2

[13] = molecular target: T1, Human MuSK (R&D Systems, cat. 10189-MK, …); assay: SPR (Biacore), antibody captured on anti-hFc chip; average of 0.3125-10 nM; dissociation pH 5.5
Description: as §2

[14] = molecular target: T2, human monomeric MuSK FLAG streptavidin …; assay: epitope binning ELISA (coated anti-MuSK Fab, MuSK, IgG, anti-Fc HRP); competitor: 3D9b
Method: as §3, §4

| Binder | amplitude of prelead after presaturating MuSK (RU) [1] | extra amplitude (%) [1] | normalized extra amplitude (%) [1] | amplitude of prelead after presaturating MuSK (RU) [2] | extra amplitude (%) [2] | normalized extra amplitude (%) [2] | amplitude of prelead after presaturating MuSK (RU) [3] | extra amplitude (%) [3] | normalized extra amplitude (%) [3] | amplitude of prelead without presaturating MuSK (RU) [4] | amplitude of prelead without presaturating MuSK (RU) [5] | amplitude of prelead without presaturating MuSK (RU) [6] | koff [7] | amplitude of prelead without presaturating MuSK (RU) [8] | koff [9] | koff [10] | OD 450 nm [11] | koff [12] | koff [13] | OD 450 nm [14] |
| --- | --- | --- | --- | --- | --- | --- | --- | --- | --- | --- | --- | --- | --- | --- | --- | --- | --- | --- | --- | --- |
| B1 | 68 RU | 7.2% | 1.9% | -1 RU | -0.5% | -1.5% | 56 RU | 1.8% | 0.2% | 951 RU | 2370 RU | 189 RU | 0.00011 s⁻¹ | 3130 RU | 0.00018 s⁻¹ | 9e-05 s⁻¹ | 0.062 OD | 0.00016 s⁻¹ | 9e-05 s⁻¹ | 0.115 OD |
| B2 | 163 RU | 14.9% | 9.6% | 40 RU | 1% | 0% | 169 RU | 8% | 6.4% | 1100 RU | 1660 RU | 3970 RU | 4e-05 s⁻¹ | 2110 RU | 9e-05 s⁻¹ | 4e-05 s⁻¹ | 0.086 OD | 0.00012 s⁻¹ | 4e-05 s⁻¹ | 0.15 OD |
| B3 | 59 RU | 5.8% | 0.6% | -5 RU | -2.1% | -3.1% | 26 RU | 1% | -0.6% | 1010 RU | 3640 RU | 235 RU | 0.00023 s⁻¹ | 2510 RU | 6e-05 s⁻¹ | 0.0002 s⁻¹ | 0.076 OD | 8e-05 s⁻¹ | 0.0002 s⁻¹ | 0.133 OD |
| B4 | 45 RU | 5.2% | 0% | -3 RU | -1.6% | -2.6% | 42 RU | 1.6% | 0% | 859 RU | 2390 RU | 188 RU | 0.00019 s⁻¹ | 2620 RU | 0.00015 s⁻¹ | 0.00014 s⁻¹ | 0.023 OD | 0.00014 s⁻¹ | 0.00016 s⁻¹ | 0.061 OD |
